Test results taken from patent publication US8691225B2, “Antibodies against the ectodomain of ErbB3 and uses thereof” (Merrimack Pharmaceuticals, Inc., priority 2007, dated 2014).

Tests used:
[1] = target: T1, ErbB2/3 complex in AdrR cells (Homo sapiens, UniProt P21860); experiment: ErbB2-ErbB3 protein complex formation (immunoprecipitation, blot); assay type: cell-based; settings: 250 nM Ab #6, 10 nM HRG
T1 construct: host or cells: AdrR ovarian cancer cells
Experimental: The cells are lysed in 25 mM Tris, pH+7.5, 150 mM NaCl, 1 mM EDTA, 1.0% Triton X-100, 1.0% CHAPS, 10% v/v glycerol, containing 0.2 mM PMSF, 50 mTU/mL aprotinin, and 100 uM leupeptin, and the crude lysate are centrifuged briefly to remove insoluble material. Supernatant is transferred to a new EPPENDORF tube, and anti-ErbB3 antibody (Santa Cruz sc-285) is added at 1:500 dilution. Supernatants are incubated overnight with gentle shaking at 4 C. 60 ul of Immobilized Protein A/G agarose beads (Pierce, Rockford, Ill., #20421) is first washed with 1× PBS. The cell lysate-antibody mixture is added to the PBS washed beads, and incubated for 2 hours with gentle shaking at 4° C. The immunoprecipitates are then washed with ice-cold lysis buffer 3 times, resuspended in 30 ul of 2× SDS sample buffer, heat denatured at 95° C. for 7 minutes and run on 4-12% Bis-Tris Gels. SDS-PAGE and electro-transferred to PVDF membrane in Tri-Glycine buffer with 10% MeOH. […] The signal is detected using goat anti-rabbit IRDye800® infrared fluorescent dye-conjugated secondary antibody at 1:5000 (2 ul) in 10 ml of blocking buffer (Li-Cor Biosciences, #927-40000).

[2] = tested on: MCF-7 cells; experiment: trans-well cell migration assay; assay type: cell-based, human; settings: 8 uM Ab #6, 10% FBS chemoattractant, 16 hours
Experimental: The cells are then transferred to an upper chamber that is separated from a lower chamber by a collagen type I-coated membrane through which the cells can migrate. […] The chambers are incubated at 37° C. for 16 hours and then the cells that migrate through the membrane into the lower chamber are removed using a detachment buffer and incubated with a cell-binding fluorescent dye. Fluorescence is quantitated using a fluorescent plate reader.

[3] = tested on: ErbB3 phosphorylation in ovarian AdrR cells; experiment: BTC or HRG induced ErbB3 phosphorylation in AdrR cells in vitro; assay type: cell-based, human
Experimental: Following pre incubation, the media are removed and the cells are stimulated for 5 minutes at 37° C., 5% CO2 with 50 nM BTC or 333 nM TGF-α. HRG controls (5 minutes, 5 nM), 10% serum and 0% serum controls are also used. Cells are washed with 1× cold PBS and lysed in 30 μl cold lysis buffer (M-PER buffer (Pierce) plus sodium vanadate (NaVO4, Sigma), 2-glycerophosphate, phenylarsine oxide, BpV and protease inhibitors) by incubating on ice for 30 minutes. Lysates are stored overnight at −80° C.

[4] = tested on: MALME-3M cells; experiment: CellTiter-Glo proliferation assay; assay type: cell-based, human; settings: 96 hours
Experimental: (§1) MALME3M, ACHN and NCI/AdrR cells are seeded in 96 well tissue culture plates and grown in RPMI-1640 media supplemented with antibiotics, 2 mM L-glutamine and 10% FBS for 24 hours at 37 degrees Celsius and 5% carbon dioxide. […] Cells are grown for 96 hours at 37° C. and 5% carbon dioxide, then harvested with CellTiter-Glo® Luminescent Cell Viability Assay (Promega, G7573) and analyzed on a luminometer. Media containing no serum and antibody is used as control.

[5] = tested on: ACHN cells; experiment: CellTiter-Glo proliferation assay; assay type: cell-based, human; settings: 96 hours
Experimental: as §1

[6] = tested on: AdrR ovarian cancer cells; experiment: CellTiter-Glo proliferation assay; assay type: cell-based, human; settings: 96 hours
Experimental: as §1

B1: Ab #6: human anti-ErbB3 antibody from Fab-phage library, CDRs SEQ ID NOs:7-12; used as IgG1 and IgG2 isotypes; in phase I trials as MM-121 (antibody, V domains shown)
VH: EVQLLESGGGLVQPGGSLRLSCAASGFTFSHYVMAWVRQAPGKGLEWVSSISSSGGWTLYADSVKGRFTISRDNSKNTLYLQMNSLRAEDTAVYYCTRGLKMATIFDYWGQGTLVTVSS
VL: QSALTQPASVSGSPGQSITISCTGTSSDVGSYNVVSWYQQHPGKAPKLIIYEVSQRPSGVSNRFSGSKSGNTASLTISGLQTEDEADYYCCSYAGSSIFVIFGGGTKVTVL
inhibition of HRG stimulated ErbB2/3 complex formation [1]: completely inhibit HRG stimulated ErbB2/3 complex formation
inhibition of FBS induced cell migration [2]: inhibits the FBS induced cell migration
inhibition of betacellulin-mediated phosphorylation of ErbB3 ([3]; BTC stimulation): significantly inhibited
inhibition of heregulin-mediated phosphorylation of ErbB3 ([3]; HRG stimulation): significantly inhibited
inhibition of proliferation [4]: about 19.6%
inhibition of proliferation [5]: about 25.4%
inhibition of proliferation [6]: about 30.5%
